The source of these data is paper PMC4525382, “Functional characterization and expression analysis of rice δ^1-pyrroline-5-carboxylate dehydrogenase provide new insight into the regulation of proline and arginine catabolism” (Frontiers in Plant Science, 2015).

The target in series [1] is T1, rice P5C dehydrogenase (OsP5CDH) (Oryza sativa, UniProt B9FLB9).
T1 construct: gene Os05g0536400; mature form lacking the 16-residue predicted mitochondrial transit peptide; N-terminal His6 tag (pET151, TEV-cleavable; tag without effect); E. coli BL21(DE3) pLysS; monomer 57,670 Da; homotetramer 259 kDa
T1 sequence (B9FLB9 17-550): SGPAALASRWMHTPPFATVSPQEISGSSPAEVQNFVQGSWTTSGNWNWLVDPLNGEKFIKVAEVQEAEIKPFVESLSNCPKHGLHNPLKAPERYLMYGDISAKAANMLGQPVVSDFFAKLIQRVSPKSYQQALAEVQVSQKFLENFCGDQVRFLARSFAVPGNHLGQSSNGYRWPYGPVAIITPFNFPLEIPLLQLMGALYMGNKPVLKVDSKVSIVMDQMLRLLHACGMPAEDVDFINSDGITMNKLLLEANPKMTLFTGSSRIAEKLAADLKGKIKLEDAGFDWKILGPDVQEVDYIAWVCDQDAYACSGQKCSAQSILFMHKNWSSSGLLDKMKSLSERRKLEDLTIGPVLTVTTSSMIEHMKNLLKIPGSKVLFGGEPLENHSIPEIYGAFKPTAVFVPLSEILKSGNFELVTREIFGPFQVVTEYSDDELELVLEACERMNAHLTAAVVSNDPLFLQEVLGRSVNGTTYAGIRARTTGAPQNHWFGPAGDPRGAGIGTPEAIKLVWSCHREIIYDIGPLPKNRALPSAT
The series is described as follows: NAD(P)H absorbance at […] nm, kinetic analysis. Type of series: biochemical.

For series [2], the target named is T1, rice P5C dehydrogenase (OsP5CDH). The series is described as follows: NAD(P)H absorbance at […] nm, non-linear regression. Type of series: biochemical.
Series [3] concerns the target rice P5C dehydrogenase, truncated version lacking the predicted mitochondrial transit peptide (Oryza sativa (rice)). Put plainly: SEC; gel permeation on Superose 12 HR 10/30; 100 uL of purified protein at 0.5 mg/mL; 50 mM Tris-HCl pH 7.75, 250 mM NaCl (same pattern from 250 mM to 1 M NaCl); column calibrated with mass markers; six runs.
Substrate in series [4]: NC(=O)c1ccc[n+]([C@@H]2O[C@H](COP(=O)(O)OP(=O)(O)OC[C@H]3O[C@@H](n4cnc5c(N)ncnc54)[C@H](O)[C@@H]3O)[C@@H](O)[C@H]2O)c1
The series is described as follows: purified protein. Type of series: biochemical, Oryza sativa. Conditions: 1 mM L-P5C, 50 mM Hepes-KOH pH 7.5, 35 °C, varied: cofactor.

Substrate in series [5]: NC(=O)c1ccc[n+]([C@@H]2O[C@H](COP(=O)(O)OP(=O)(O)OC[C@H]3O[C@@H](n4cnc5c(N)ncnc54)[C@H](OP(=O)(O)O)[C@@H]3O)[C@@H](O)[C@H]2O)c1
Put plainly: purified protein. It counts as biochemical, Oryza sativa. To be noted: 1 mM L-P5C, 50 mM Hepes-KOH pH 7.5, 35 °C, varied: cofactor.

Substrate in series [6]: O=C(O)[C@@H]1CCC=N1
Put plainly: purified protein. It counts as biochemical, Oryza sativa. Conditions: 10 mM NAD+ co-substrate, 50 mM Hepes-KOH pH 7.5, 35 °C.

As to `N=C(N)NCCC[C@H](N)C(=O)O` [arginine], the inhibition constant (Ki) (usually a dissociation constant, usually derived from enzyme kinetics or from competition with a known ligand) in series [1] came out at 62.3 ± 2.4 mM. For the same molecule, the IC50 (in general, the concentration needed to halve the response being measured) in series [2] was determined as 87 ± 11 mM.

For “rice P5C dehydrogenase, truncated version lacking the predicted mitochondrial transit peptide (enzyme)”, the stoichiometry N (commonly the number of molecules, sites or subunits per partner or assembly) in series [3] is 4.

B1: rice P5C dehydrogenase (OsP5CDH) (Oryza sativa Japonica Group) (protein)
chain: SGPAALASRWMHTPPFATVSPQEISGSSPAEVQNFVQGSWTTSGNWNWLVDPLNGEKFIKVAEVQEAEIKPFVESLSNCPKHGLHNPLKAPERYLMYGDISAKAANMLGQPVVSDFFAKLIQRVSPKSYQQALAEVQVSQKFLENFCGDQVRFLARSFAVPGNHLGQSSNGYRWPYGPVAIITPFNFPLEIPLLQLMGALYMGNKPVLKVDSKVSIVMDQMLRLLHACGMPAEDVDFINSDGITMNKLLLEANPKMTLFTGSSRIAEKLAADLKGKIKLEDAGFDWKILGPDVQEVDYIAWVCDQDAYACSGQKCSAQSILFMHKNWSSSGLLDKMKSLSERRKLEDLTIGPVLTVTTSSMIEHMKNLLKIPGSKVLFGGEPLENHSIPEIYGAFKPTAVFVPLSEILKSGNFELVTREIFGPFQVVTEYSDDELELVLEACERMNAHLTAAVVSNDPLFLQEVLGRSVNGTTYAGIRARTTGAPQNHWFGPAGDPRGAGIGTPEAIKLVWSCHREIIYDIGPLPKNRALPSAT
notes: mature form lacking the 16-residue predicted mitochondrial transit peptide; N-terminal His6 tag (pET151, TEV-cleavable; tag without effect); E. coli BL21(DE3) pLysS; monomer 57,670 Da; homotetramer 259 kDa
B1: the Km (usually the concentration of substrate that gives half-maximal velocity) in “purified protein [4]” was found to be 644 ± 30 µM; in the series “purified protein [5]”, 4695 ± 462 µM; in the series “purified protein [6]”, 358 ± 14 µM. Also, the Vmax in “purified protein [4]” is recorded as 196.9 ± 2.1 nkat (mg protein)^−1; in the series “purified protein [5]”, 49.2 ± 1.7 nkat (mg protein)^−1. For the same molecule, the turnover number (kcat) – broadly, the maximal rate divided by the concentration of active sites – in the series “purified protein [4]” stood at 12 s⁻¹; in “purified protein [5]” it was 3 s⁻¹.
